According to publication PMC11772155, “Solid-Phase-Supported Chemoenzymatic Synthesis and Analysis of Chondroitin Sulfate Proteoglycan Glycopeptides” (Angewandte Chemie (International ed. in English), 2024):
Values belong to the molecule of their own block, whether it stands above or below them. Numbered stars: 1 amine (or outer) side, 2 acyl side, 3 side chain; on linkers, the order of the positions; unused ones are H or OH. Square brackets hold non-standard residues; d marks the D form. Ends that are not written are not given here. Peptide text beside a SMILES is read from it. X1 = CC(=O)N[C@H]1[C@H](O[C@H]2[C@H](O)[C@@H](O)[C@H](O[C@H]3[C@@H](O)[C@@H](CO)O[C@@H](O[C@H]4[C@@H](O)[C@@H](CO)O[C@@H](O[C@@H]5CO[C@@H](OC[C@H](N[*:1])C(=O)[*:2])[C@H](O)[C@H]5O)[C@@H]4O)[C@@H]3O)O[C@@H]2C(=O)O)O[C@H](CO)[C@H](OS(=O)(=O)O)[C@@H]1O[C@@H]1O[C@H](C(=O)O)[C@@H](O[C@@H]2O[C@H](CO)[C@H](OS(=O)(=O)O)[C@H](O[C@@H]3O[C@H](C(=O)O)[C@@H](O[C@@H]4O[C@H](CO)[C@H](O)[C@H](O[C@@H]5O[C@H](C(=O)O)[C@@H](O)[C@H](O)[C@H]5O)[C@H]4NC(C)=O)[C@H](O)[C@H]3O)[C@H]2NC(C)=O)[C@H](O)[C@H]1O

Experiments:
[1] = target: T1, Human Neutrophil Cathepsin G (Homo sapiens, UniProt P08311); assay: BLI (biolayer interferometry) binding assay of immobilized biotinylated compounds with Cathepsin G; conditions: biotinylated compounds immobilized on streptavidin sensors, Cathepsin G at 2000, 1000, 500, 250 nM in PBS containing 0.005% P20, read-out: KD (nM) with Cathepsin G
T1 construct: Human Neutrophil Cathepsin G was purchased from Athens; purchased Athens Research & Technology, Inc. (Athens, Georgia)
T1 sequence (P08311 21-243 limits assumed): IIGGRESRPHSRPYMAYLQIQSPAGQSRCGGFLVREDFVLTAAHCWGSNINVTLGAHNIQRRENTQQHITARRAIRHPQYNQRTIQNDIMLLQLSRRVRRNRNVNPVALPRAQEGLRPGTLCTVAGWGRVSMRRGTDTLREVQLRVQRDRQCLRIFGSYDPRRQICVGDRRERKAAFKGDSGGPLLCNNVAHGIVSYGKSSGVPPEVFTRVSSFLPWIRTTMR
Text: With structurally defined glycopeptides in hand, we aim to better understand the structural features needed for bikunin glycopeptide binding. Cathepsin G (CatG), a neutrophil serine protease, plays a crucial role in regulating various physiological processes, including inflammation, digestion, smooth muscle contraction, and tissue remodeling.[64] While CatG has been reported to interact with CSPG, the structural requirement of CSPG binding has not been established.[25] To measure the binding affinity towards CatG, peptides 5 and glycopeptides 10, 18–21 were biotinylated and immobilized on streptavidin coated sensors for biolayer interferometry (BLI) studies. Biotinylated 50 kDa CS and CS-A were also immobilized on the sensors for comparison. […]
General procedure of glycopeptide biotinylation
To a solution of peptide or glycopeptide in DMSO/H 2O (1/1, 0.1 ml) was added NHS-LC-Biotin (4 equiv.) and diisoproylethylamine (pH ~ 8.5). The reaction was incubated at 37 °C for 2 h. Then the mixture was dried in vacuo and purified by HPLC.
General procedure for BLI binding assay
The binding assay was performed on the Octet K2 System (Pall ForteBio). The biotinylated compounds were incubated with streptavidin (SA) sensors for 2 min. The sensor was then balanced in the assay buffer (PBS containing 0.005% P20) and dipped into Cathepsin G solution in assay buffer at 2000 nM, 1000 nM, 500 nM, 250 nM concentrations.
After 5 min of association, the sensor was brought back to the previous assay buffer for a 5 min dissociation step. At the end of the assay, the sensor was regenerated in 2 M NaCl to remove the bound protein. Each measurement was repeated 3 times on the same sensor. The control assay was performed with another sensor loaded with a 2 mM biotin solution.
Figure S3. Binding of peptide and glycopeptides a) 5, b) 10 , c) 18 , d) 19 , e) 20 , f) 21 , g) commercially available biotinylated 50 kDa CS, and h) 50 kDa CS-A to neutrophil Cathepsin G as measured by BLI ( a-h respectively). The biotinylated compounds (50 nM) were immobilized on streptavidin coated biosensors, and human neutrophil Cathepsin G was captured on biosensors with four concentrations at 2000 nM, 1000 nM, 500 nM, 250 nM.
Fitting curves were shown in red lines. […]

[2] = target: biotinylated non-sulfated chondroitin dodecasaccharide glycopeptide 18 (bikunin); assay: BLI; biotinylated peptide or glycopeptides immobilised on streptavidin coated sensors; cathepsin G in solution
[3] = target: biotinylated sulfated 10-mer CS-bearing glycopeptide 20 (bikunin); assay: as above
[4] = target: biotinylated sulfated 12-mer CS-bearing glycopeptide 21 (bikunin); assay: as above
[5] = target: biotinylated sulfated 8-mer CS-bearing glycopeptide 19 (bikunin); assay: as above
[6] = target: biotinylated tetrasaccharide linkage region bearing glycopeptide 10 (bikunin); assay: as above

Molecule: CC(=O)N[C@H]1[C@H](O[C@H]2[C@H](O)[C@@H](O)[C@H](O[C@H]3[C@@H](O)[C@@H](CO)O[C@@H](O[C@H]4[C@@H](O)[C@@H](CO)O[C@@H](O[C@@H]5CO[C@@H](OC[C@H](NC(=O)CNC(=O)[C@H](CCC(=O)O)NC(=O)[C@H](CCC(=O)O)NC(=O)[C@H](CCC(=O)O)NC(=O)[C@H](CCC(N)=O)NC(=O)[C@@H]6CCCN6C(=O)[C@H](CC(C)C)NC(=O)[C@@H](NC(=O)[C@H](C)N)C(C)C)C(=O)NCC(=O)NCC(=O)NCC(=O)N[C@@H](CCC(N)=O)C(=O)N[C@@H](CC(C)C)C(=O)N[C@H](C(=O)N[C@H](C(=O)N[C@@H](CCC(=O)O)C(=O)N[C@H](C(=O)N[C@H](C(=O)N[C@@H](CCCCN)C(=O)N[C@@H](CCCCN)C(=O)N[C@@H](CCC(=O)O)C(=O)N[C@@H](CC(=O)O)C(=O)N[C@@H](CO)C(=O)O)[C@@H](C)O)C(C)C)[C@@H](C)O)C(C)C)[C@H](O)[C@H]5O)[C@@H]4O)[C@@H]3O)O[C@@H]2C(=O)O)O[C@H](CO)[C@H](OS(=O)(=O)O)[C@@H]1O[C@@H]1O[C@H](C(=O)O)[C@@H](O[C@@H]2O[C@H](CO)[C@H](OS(=O)(=O)O)[C@H](O[C@@H]3O[C@H](C(=O)O)[C@@H](O[C@@H]4O[C@H](CO)[C@H](O)[C@H](O[C@@H]5O[C@H](C(=O)O)[C@@H](O)[C@H](O)[C@H]5O)[C@H]4NC(C)=O)[C@H](O)[C@H]3O)[C@H]2NC(C)=O)[C@H](O)[C@H]1O [Compound 20] (H-AVLPQEEEG[X1]GGGQLVTEVTKKEDS-OH; N-terminus and C-terminus assumed)
Kd [1]: 74 ± 7 nM

Molecule: CC(=O)N[C@H]1[C@H](O[C@H]2[C@H](O)[C@@H](O)[C@H](O[C@H]3[C@@H](O)[C@@H](CO)O[C@@H](O[C@H]4[C@@H](O)[C@@H](CO)O[C@@H](O[C@@H]5CO[C@@H](OC[C@H](NC(=O)CNC(=O)[C@H](CCC(=O)O)NC(=O)[C@H](CCC(=O)O)NC(=O)[C@H](CCC(=O)O)NC(=O)[C@H](CCC(N)=O)NC(=O)[C@@H]6CCCN6C(=O)[C@H](CC(C)C)NC(=O)[C@@H](NC(=O)[C@H](C)N)C(C)C)C(=O)NCC(=O)NCC(=O)NCC(=O)N[C@@H](CCC(N)=O)C(=O)N[C@@H](CC(C)C)C(=O)N[C@H](C(=O)N[C@H](C(=O)N[C@@H](CCC(=O)O)C(=O)N[C@H](C(=O)N[C@H](C(=O)N[C@@H](CCCCN)C(=O)N[C@@H](CCCCN)C(=O)N[C@@H](CCC(=O)O)C(=O)N[C@@H](CC(=O)O)C(=O)N[C@@H](CO)C(=O)O)[C@@H](C)O)C(C)C)[C@@H](C)O)C(C)C)[C@H](O)[C@H]5O)[C@@H]4O)[C@@H]3O)O[C@@H]2C(=O)O)O[C@H](CO)[C@H](OS(=O)(=O)O)[C@@H]1O[C@@H]1O[C@H](C(=O)O)[C@@H](O[C@@H]2O[C@H](CO)[C@H](OS(=O)(=O)O)[C@H](O[C@@H]3O[C@H](C(=O)O)[C@@H](O[C@@H]4O[C@H](CO)[C@H](OS(=O)(=O)O)[C@H](O[C@@H]5O[C@H](C(=O)O)[C@@H](O[C@@H]6O[C@H](CO)[C@H](O)[C@H](O[C@@H]7O[C@H](C(=O)O)[C@@H](O)[C@H](O)[C@H]7O)[C@H]6NC(C)=O)[C@H](O)[C@H]5O)[C@H]4NC(C)=O)[C@H](O)[C@H]3O)[C@H]2NC(C)=O)[C@H](O)[C@H]1O [Compound 21]
Kd [1]: 56 ± 8 nM

Kd [2]: 490 nM
Kd [3]: 74 nM
Kd [4]: 56 nM
Kd [5]: 49 nM
Kd [6]: 650 nM
Molecule: Cathepsin G (from UniProt P08311 21-244) (enzyme)

Kd [1]: 400 ± 40 nM
Molecule: H-AVLPQEEEGSGGGQLVTEVTKKEDS [Compound 5]
